Assay results published in PMC4482077.

Tests used:
Test in all cases: AUC
[1] = target: E. faecalis S613 LiaR (wild type, full length) (Enterococcus faecalis S613)
[2] = target: LiaR^(DBD), isolated DNA binding domain of wild-type E. faecalis S613 LiaR (residues 140-206) (Enterococcus faecalis S613)
[3] = target: LiaR^(DBD)D191N, isolated DNA binding domain of E. faecalis S613 LiaR (residues 140-206) with D191N (Enterococcus faecalis S613)
[4] = target: LiaR^D50E (phosphomimetic mutant of E. faecalis S613 LiaR) (Enterococcus faecalis S613)
[5] = target: LiaR^D191N (adaptive mutant of E. faecalis S613 LiaR) (Enterococcus faecalis S613)

E. faecalis S613 LiaR (wild type, full length) (natural protein)
Kd [1]: 24 µM | stoichiometry N [1]: 4

LiaR^(DBD), isolated DNA binding domain of wild-type E. faecalis S613 LiaR (residues 140-206) (domain or fragment)
Kd [2]: 2 µM | stoichiometry N [2]: 2

LiaR^(DBD)D191N, isolated DNA binding domain of E. faecalis S613 LiaR (residues 140-206) with D191N (domain or fragment)
Kd [3]: < 0.04 µM | stoichiometry N [3]: 2

LiaR^D50E (phosphomimetic mutant of E. faecalis S613 LiaR) (natural protein)
stoichiometry N [4]: 4

LiaR^D191N (adaptive mutant of E. faecalis S613 LiaR) (natural protein)
Kd [5]: < 0.06 µM | stoichiometry N [5]: 4
